In the supplement of paper PMC10065799, “High-throughput profiling of sequence recognition by tyrosine kinases and SH2 domains using bacterial peptide display” (eLife, 2023):

Legend:
AncSZ = experiment: phosphorylation enrichment, bacterial display (enrichment ratio); higher = better substrate or ligand; peptides without Tyr show the background
Fes = Fes (UniProt P07332); experiment: as above
EPHB1 = EPHB1 (UniProt P54762); experiment: as above
FGFR3 = FGFR3 (UniProt P22607); experiment: as above
EPHB2 = EPHB2 (UniProt P29323); experiment: as above
Sequence of EPHB2 (P29323 whole entry, looked up): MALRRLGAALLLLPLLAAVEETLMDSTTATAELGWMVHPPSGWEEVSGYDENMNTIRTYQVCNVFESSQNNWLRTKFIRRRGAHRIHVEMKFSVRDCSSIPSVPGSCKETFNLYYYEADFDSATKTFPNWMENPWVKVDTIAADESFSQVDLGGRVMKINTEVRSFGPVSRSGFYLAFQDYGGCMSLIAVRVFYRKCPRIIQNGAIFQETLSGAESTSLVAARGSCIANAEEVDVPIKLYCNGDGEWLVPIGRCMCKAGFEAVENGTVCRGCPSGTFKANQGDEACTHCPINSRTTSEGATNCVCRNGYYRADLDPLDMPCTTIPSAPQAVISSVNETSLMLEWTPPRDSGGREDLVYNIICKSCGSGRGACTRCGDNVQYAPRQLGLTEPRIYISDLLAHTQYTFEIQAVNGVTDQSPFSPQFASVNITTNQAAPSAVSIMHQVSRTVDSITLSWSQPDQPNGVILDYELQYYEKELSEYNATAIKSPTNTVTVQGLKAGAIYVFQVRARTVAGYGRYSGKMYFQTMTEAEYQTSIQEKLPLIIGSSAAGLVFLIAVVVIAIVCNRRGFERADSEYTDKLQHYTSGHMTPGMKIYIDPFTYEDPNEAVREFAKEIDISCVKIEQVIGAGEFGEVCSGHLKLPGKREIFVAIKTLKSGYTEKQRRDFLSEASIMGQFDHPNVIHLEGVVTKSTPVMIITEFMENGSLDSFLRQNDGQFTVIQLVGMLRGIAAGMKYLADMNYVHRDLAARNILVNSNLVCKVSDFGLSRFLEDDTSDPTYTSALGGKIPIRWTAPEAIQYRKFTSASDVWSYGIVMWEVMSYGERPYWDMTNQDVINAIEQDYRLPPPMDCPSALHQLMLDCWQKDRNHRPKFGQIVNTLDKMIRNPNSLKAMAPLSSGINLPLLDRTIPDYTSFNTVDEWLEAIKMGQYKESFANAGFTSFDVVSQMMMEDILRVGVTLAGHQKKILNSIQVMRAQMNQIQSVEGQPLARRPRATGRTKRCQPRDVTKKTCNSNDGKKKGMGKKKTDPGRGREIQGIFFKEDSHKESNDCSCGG

Jak2 = Jak2 (UniProt O60674); experiment: as above
MERTK = MERTK (UniProt Q12866); experiment: as above
Sequence of MERTK (Q12866 whole entry, looked up): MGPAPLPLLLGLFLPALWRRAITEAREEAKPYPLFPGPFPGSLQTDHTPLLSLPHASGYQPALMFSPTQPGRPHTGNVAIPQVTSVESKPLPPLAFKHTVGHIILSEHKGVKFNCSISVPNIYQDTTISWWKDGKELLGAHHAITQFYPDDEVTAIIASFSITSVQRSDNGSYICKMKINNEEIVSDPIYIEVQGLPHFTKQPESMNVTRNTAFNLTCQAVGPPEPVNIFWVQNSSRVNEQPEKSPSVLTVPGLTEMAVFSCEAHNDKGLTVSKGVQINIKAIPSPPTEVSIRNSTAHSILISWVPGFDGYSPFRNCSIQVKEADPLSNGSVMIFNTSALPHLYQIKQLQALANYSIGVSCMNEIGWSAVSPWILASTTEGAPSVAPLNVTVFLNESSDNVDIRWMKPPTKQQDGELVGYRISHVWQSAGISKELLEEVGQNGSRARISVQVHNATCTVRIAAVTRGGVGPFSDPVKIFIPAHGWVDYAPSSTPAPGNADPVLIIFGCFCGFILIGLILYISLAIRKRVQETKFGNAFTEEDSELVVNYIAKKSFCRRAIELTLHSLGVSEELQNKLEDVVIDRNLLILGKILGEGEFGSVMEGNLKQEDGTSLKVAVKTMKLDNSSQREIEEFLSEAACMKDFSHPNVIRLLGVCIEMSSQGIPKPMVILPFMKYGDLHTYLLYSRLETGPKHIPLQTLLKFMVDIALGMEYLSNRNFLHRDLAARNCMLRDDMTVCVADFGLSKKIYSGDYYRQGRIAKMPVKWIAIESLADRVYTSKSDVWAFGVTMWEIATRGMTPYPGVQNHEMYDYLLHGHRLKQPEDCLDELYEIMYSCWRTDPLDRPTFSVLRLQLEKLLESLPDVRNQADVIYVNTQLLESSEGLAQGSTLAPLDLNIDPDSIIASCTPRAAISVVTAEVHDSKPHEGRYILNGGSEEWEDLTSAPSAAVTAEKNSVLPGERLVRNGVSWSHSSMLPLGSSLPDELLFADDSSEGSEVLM

c-Abl (mouse) = experiment: as above
Fer (mouse) = experiment: as above
Hck = Hck (UniProt P08631); experiment: as above
Sequence of Hck (P08631 whole entry, looked up): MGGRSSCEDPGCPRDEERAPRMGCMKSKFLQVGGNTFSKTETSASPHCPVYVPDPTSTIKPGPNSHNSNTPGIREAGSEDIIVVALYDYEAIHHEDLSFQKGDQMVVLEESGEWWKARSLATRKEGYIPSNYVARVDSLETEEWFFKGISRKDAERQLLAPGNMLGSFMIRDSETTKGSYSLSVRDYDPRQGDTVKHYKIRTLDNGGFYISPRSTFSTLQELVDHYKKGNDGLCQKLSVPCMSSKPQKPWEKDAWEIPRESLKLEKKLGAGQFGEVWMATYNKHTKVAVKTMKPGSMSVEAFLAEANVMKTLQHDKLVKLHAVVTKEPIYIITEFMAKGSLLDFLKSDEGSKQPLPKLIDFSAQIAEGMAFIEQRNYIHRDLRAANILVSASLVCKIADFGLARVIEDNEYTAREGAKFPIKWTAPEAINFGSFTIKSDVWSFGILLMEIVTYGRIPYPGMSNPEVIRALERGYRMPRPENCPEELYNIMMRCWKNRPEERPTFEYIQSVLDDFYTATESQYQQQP

FGFR1 = FGFR1 (UniProt P11362); experiment: as above
Sequence of FGFR1 (P11362 whole entry, looked up): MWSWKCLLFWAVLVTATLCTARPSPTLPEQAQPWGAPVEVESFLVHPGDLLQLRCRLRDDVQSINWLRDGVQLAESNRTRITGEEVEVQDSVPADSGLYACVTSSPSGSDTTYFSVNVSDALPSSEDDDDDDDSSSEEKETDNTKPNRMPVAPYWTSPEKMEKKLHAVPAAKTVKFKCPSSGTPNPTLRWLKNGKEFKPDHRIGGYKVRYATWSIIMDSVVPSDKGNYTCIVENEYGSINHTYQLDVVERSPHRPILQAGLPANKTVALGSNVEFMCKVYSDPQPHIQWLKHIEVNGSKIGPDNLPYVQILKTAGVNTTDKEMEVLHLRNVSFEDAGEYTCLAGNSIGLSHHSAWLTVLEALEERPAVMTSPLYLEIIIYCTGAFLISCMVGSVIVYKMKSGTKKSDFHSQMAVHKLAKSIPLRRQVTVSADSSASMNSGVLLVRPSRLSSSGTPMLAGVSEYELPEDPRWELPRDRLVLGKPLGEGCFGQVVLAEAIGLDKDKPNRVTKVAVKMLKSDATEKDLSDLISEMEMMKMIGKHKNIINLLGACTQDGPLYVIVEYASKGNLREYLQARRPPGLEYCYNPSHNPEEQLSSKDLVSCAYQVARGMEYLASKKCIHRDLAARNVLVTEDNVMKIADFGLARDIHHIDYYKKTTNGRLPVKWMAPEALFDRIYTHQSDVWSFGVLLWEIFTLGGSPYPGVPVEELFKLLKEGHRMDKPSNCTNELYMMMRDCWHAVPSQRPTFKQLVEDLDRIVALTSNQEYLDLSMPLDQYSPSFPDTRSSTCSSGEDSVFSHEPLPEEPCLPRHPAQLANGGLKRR

Fyn = Fyn (UniProt P06241); experiment: as above
Sequence of Fyn (P06241 whole entry, looked up): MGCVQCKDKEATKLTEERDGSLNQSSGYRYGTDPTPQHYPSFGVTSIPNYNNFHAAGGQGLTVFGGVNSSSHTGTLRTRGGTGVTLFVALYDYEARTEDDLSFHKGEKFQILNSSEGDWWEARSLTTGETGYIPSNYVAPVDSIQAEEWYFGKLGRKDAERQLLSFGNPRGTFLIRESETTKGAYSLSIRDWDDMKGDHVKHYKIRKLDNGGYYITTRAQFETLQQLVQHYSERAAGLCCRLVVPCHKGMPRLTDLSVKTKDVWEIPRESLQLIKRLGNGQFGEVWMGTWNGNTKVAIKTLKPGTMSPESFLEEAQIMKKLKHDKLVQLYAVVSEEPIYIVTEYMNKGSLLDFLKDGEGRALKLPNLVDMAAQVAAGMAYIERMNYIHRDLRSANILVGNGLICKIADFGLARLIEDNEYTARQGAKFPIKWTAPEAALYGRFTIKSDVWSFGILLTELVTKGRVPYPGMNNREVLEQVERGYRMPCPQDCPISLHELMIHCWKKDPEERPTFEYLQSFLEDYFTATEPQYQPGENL

c-Src = experiment: as above
SHP2-C SH2 = experiment: SH2 binding enrichment of the phosphorylated peptide, bacterial display (enrichment ratio); higher = better substrate or ligand; peptides without Tyr show the background
Grb2 SH2 = Grb2 SH2 (UniProt P62993); experiment: as above
c-Src SH2 = experiment: as above
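Wherever SH2 binding enrichment of the phosphorylated peptide, bacterial display is given: peptide library displayed on the E. coli surface as eCPX fusions, selected cells deep-sequenced, score is each peptide's frequency after selection divided by its frequency in the input.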
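Wherever phosphorylation enrichment, bacterial display is given: 11-residue human phosphosite peptides and single-mutation variants displayed on the E. coli surface, counted by deep sequencing, each peptide's frequency after selection divided by its frequency in the unselected input library; frequency after pTyr selection over input frequency; kinase dosed for 20-30% of maximal phosphorylation in three min.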

Sequence of Fes (P07332 whole entry, looked up): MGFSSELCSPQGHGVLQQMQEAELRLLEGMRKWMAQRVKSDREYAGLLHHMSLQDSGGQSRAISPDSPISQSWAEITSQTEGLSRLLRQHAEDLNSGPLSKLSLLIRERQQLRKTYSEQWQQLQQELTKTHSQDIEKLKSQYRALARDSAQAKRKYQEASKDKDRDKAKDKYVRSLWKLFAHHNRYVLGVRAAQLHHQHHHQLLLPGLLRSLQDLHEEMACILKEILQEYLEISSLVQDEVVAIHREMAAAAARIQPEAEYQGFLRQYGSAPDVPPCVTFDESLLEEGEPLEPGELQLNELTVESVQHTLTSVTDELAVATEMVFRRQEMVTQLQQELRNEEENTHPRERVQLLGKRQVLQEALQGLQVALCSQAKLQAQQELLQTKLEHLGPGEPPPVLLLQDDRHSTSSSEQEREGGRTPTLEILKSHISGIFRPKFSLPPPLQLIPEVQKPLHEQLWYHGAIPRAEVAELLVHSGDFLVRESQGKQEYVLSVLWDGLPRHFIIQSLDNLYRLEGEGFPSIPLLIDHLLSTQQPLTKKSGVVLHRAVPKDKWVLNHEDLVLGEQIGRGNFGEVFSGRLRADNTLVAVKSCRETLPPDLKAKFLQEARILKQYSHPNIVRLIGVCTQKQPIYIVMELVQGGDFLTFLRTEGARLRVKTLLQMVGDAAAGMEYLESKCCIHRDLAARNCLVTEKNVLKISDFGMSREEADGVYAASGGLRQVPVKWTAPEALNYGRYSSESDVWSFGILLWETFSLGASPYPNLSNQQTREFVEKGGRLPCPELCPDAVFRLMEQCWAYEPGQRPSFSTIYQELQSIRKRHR

Row | Sequence | SH2 binding enrichment (SHP2-C SH2) | SH2 binding enrichment (Grb2 SH2) | SH2 binding enrichment (c-Src SH2) | phosphorylation enrichment (AncSZ) | phosphorylation enrichment (Fes) | phosphorylation enrichment (EPHB1) | phosphorylation enrichment (FGFR3) | phosphorylation enrichment (EPHB2) | phosphorylation enrichment (Jak2) | phosphorylation enrichment (MERTK) | phosphorylation enrichment (c-Abl (mouse)) | phosphorylation enrichment (Fer (mouse)) | phosphorylation enrichment (Hck) | phosphorylation enrichment (FGFR1) | phosphorylation enrichment (Fyn) | phosphorylation enrichment (c-Src)
1 | MFNPFYGLFEF [NEDD4L_Y680_YF] | 1.5 | 1.56 | 1.17 | 0.998 | 1.04 | 0.513 | 0.794 | 0.549 | 0.852 | 5.83 | 0.775 | 5.44 | 2.35 | 0.602 | 4.38 | 5.41
2 | MKTISYETLIA [DOCK10_Y1350] | 0.792 | 0.747 | 1.97 | 0.847 | 0.926 | 0.53 | 0.622 | 0.474 | 0.927 | 0.384 | 0.526 | 0.497 | 0.501 | 0.472 | 0.431 | 0.379
3 | MNPPPYSQLLS [FGF23_Y154_F157L] | 0.656 | 0.776 | 1.34 | 0.692 | 0.623 | 0.639 | 0.71 | 0.606 | 0.523 | 0.451 | 0.489 | 0.483 | 0.568 | 0.527 | 0.522 | 0.644
4 | MRALTYCDLHK [KCNH2_Y827_V822M] | 0.708 | 0.703 | 0.626 | 0.853 | 1.09 | 0.73 | 0.536 | 0.523 | 0.771 | 0.365 | 0.626 | 0.507 | 0.507 | 0.509 | 0.407 | 0.37
5 | MSFDRYMAVCH [OR2A5_Y123_I126V_YF] | 0.684 | 0.789 | 0.845 | 1.09 | 1.1 | 0.858 | 0.738 | 0.838 | 0.927 | 0.567 | 0.931 | 0.558 | 0.638 | 0.532 | 0.585 | 0.473
6 | MSIWPYLQKID [MFSD8_Y63] | 0.997 | 0.838 | 0.71 | 0.789 | 0.854 | 0.667 | 0.599 | 0.472 | 0.627 | 0.302 | 0.699 | 0.362 | 0.468 | 0.422 | 0.329 | 0.323
7 | MSRDVYSTDYY [NTRK2_Y702] | 0.735 | 1.2 | 0.715 | 1.59 | 0.842 | 2.16 | 2.72 | 2.65 | 0.788 | 5.06 | 0.558 | 0.535 | 1.73 | 3.94 | 2.77 | 3.88
8 | NACGLYYKLHN [GATA2_Y376] | 0.547 | 0.739 | 0.716 | 1.5 | 1.3 | 1.13 | 1.48 | 0.774 | 2.27 | 2.29 | 0.922 | 0.56 | 1.21 | 1.43 | 0.504 | 1.54
9 | NDFGNYSNQSS [HNRNPA1_Y318_N319S] | 0.625 | 0.795 | 0.421 | 1.02 | 0.619 | 6.89 | 0.49 | 1.92 | 0.546 | 0.501 | 0.458 | 0.43 | 0.451 | 0.461 | 0.416 | 0.463
10 | NDKLRYEVSSP [CDH13_Y66] | 0.567 | 0.711 | 0.473 | 1.14 | 1.01 | 0.473 | 0.615 | 0.502 | 0.884 | 0.451 | 0.692 | 0.443 | 0.502 | 0.475 | 0.421 | 0.438
11 | NFATLYLKIFH [PDE6B_Y219_YF] | 1.1 | 1.26 | 0.781 | 1.21 | 1.27 | 0.604 | 0.734 | 0.599 | 0.953 | 0.457 | 0.83 | 0.502 | 0.497 | 0.669 | 0.412 | 0.434
12 | NFATLYLKIYH [PDE6B_Y219] | 0.859 | 0.887 | 0.539 | 0.989 | 1.28 | 0.564 | 0.709 | 0.574 | 1.27 | 0.392 | 0.827 | 0.492 | 0.42 | 0.464 | 0.42 | 0.403
13 | NGSKGYAFVHF [PABPC5_Y147_YF] | 25.9 | 1.09 | 3.1 | 0.879 | 0.875 | 0.481 | 0.611 | 0.606 | 0.825 | 0.444 | 0.755 | 0.478 | 0.445 | 0.5 | 0.469 | 0.407
14 | NGTVTYAIVAG [CDH23_Y1672] | 12.8 | 0.655 | 1.24 | 0.99 | 0.992 | 3.07 | 0.714 | 2.01 | 0.799 | 2.6 | 0.688 | 0.471 | 1.09 | 0.545 | 0.904 | 1.08
15 | NHQYDYTFHWT [CSNK1A1_Y294_D297H] | 0.938 | 1.15 | 2.86 | 2.13 | 0.938 | 3.18 | 3.88 | 3.07 | 0.892 | 3.15 | 0.7 | 9.26 | 0.758 | 5.52 | 0.602 | 1.84
16 | NLSVPYDSSLK [ABCC8_Y1353_R1352P] | 0.735 | 0.765 | 0.489 | 0.601 | 0.68 | 0.451 | 0.503 | 0.509 | 0.588 | 0.426 | 0.516 | 0.418 | 0.445 | 0.445 | 0.41 | 0.508
17 | NLTLKYPIEHG [ACTA1_Y71_I66N] | 0.718 | 0.804 | 0.507 | 0.767 | 0.93 | 0.493 | 0.549 | 0.541 | 0.669 | 0.407 | 0.717 | 0.375 | 0.446 | 0.598 | 0.47 | 0.417
18 | NNHGNYIVHLG [ETFDH_Y172_R175H] | 0.856 | 0.863 | 0.587 | 0.71 | 0.698 | 4.2 | 0.537 | 2.19 | 0.583 | 0.493 | 0.53 | 0.712 | 0.511 | 0.623 | 0.525 | 0.391
19 | NPIGLYSAETL [LDB3_Y202] | 0.769 | 0.813 | 0.486 | 0.691 | 0.72 | 1.73 | 0.498 | 1.74 | 0.71 | 4.18 | 0.496 | 1.12 | 0.967 | 0.451 | 0.666 | 0.962
20 | NPSYNYEIVNQ [DYNC1H1_Y3379_R3384Q] | 0.348 | 0.736 | 0.642 | 0.885 | 0.818 | 10.5 | 0.701 | 4.17 | 0.754 | 0.694 | 0.55 | 2.7 | 0.497 | 0.583 | 0.463 | 0.506
21 | NSFKFYMSDDI [ATRX_Y204_C200S_YF] | 0.79 | 0.982 | 0.604 | 1.14 | 1.28 | 0.56 | 0.693 | 0.552 | 1.12 | 0.497 | 0.657 | 0.488 | 0.54 | 0.53 | 0.517 | 0.574
22 | NTCNRYCRDEI [ITGB3_Y660] | 0.658 | 0.938 | 0.808 | 0.794 | 0.777 | 0.567 | 0.486 | 0.427 | 0.714 | 0.535 | 0.596 | 0.43 | 0.407 | 0.492 | 0.485 | 0.5

More lines, main results first:

Row | SH2 binding enrichment (SHP2-C SH2) | SH2 binding enrichment (Grb2 SH2) | SH2 binding enrichment (c-Src SH2) | Sequence | phosphorylation enrichment (AncSZ) | phosphorylation enrichment (Fes) | phosphorylation enrichment (EPHB1) | phosphorylation enrichment (FGFR3) | phosphorylation enrichment (EPHB2) | phosphorylation enrichment (Jak2) | phosphorylation enrichment (MERTK) | phosphorylation enrichment (c-Abl (mouse)) | phosphorylation enrichment (Fer (mouse)) | phosphorylation enrichment (Hck) | phosphorylation enrichment (FGFR1) | phosphorylation enrichment (Fyn) | phosphorylation enrichment (c-Src)
23 | 0.653 | 0.61 | 0.439 | MGIMLYGVDSR [PKD1_Y3143_V3138M] | 0.931 | 1.08 | 0.546 | 0.694 | 0.576 | 1.03 | 0.475 | 0.745 | 0.529 | 0.55 | 0.449 | 0.467 | 0.496
24 | 2.98 | 1.38 | 1 | MSSLPYMKVIF [SLC4A11_Y853_M856V] | 0.822 | 0.84 | 0.482 | 0.592 | 0.541 | 1.02 | 0.507 | 0.461 | 1.01 | 0.622 | 0.764 | 0.507 | 0.516
25 | 0.784 | 0.664 | 7.22 | NDTAGYFVIGG [SEL1L3_Y399_I401V] | 1.17 | 1.1 | 0.669 | 1.64 | 0.642 | 6.88 | 0.872 | 0.781 | 0.581 | 0.75 | 2.16 | 0.848 | 0.727
26 | 0.644 | 0.793 | 0.496 | NGRTGYVLQPE [PLCG2_Y1036] | 0.588 | 0.757 | 0.435 | 0.431 | 0.384 | 0.566 | 0.399 | 0.494 | 0.466 | 0.474 | 0.383 | 0.448 | 0.416
27 | 13.7 | 0.796 | 1.71 | NMHSTYAKLAA [SEC22B_Y193] | 0.382 | 0.401 | 0.437 | 0.349 | 0.451 | 0.362 | 0.38 | 0.47 | 0.34 | 0.948 | 0.385 | 0.415 | 0.375
28 | 0.66 | 1.11 | 0.412 | NPQKSYFICLY [WAS_Y83_R86C] | 1.11 | 1.2 | 0.675 | 0.975 | 0.604 | 1.12 | 0.557 | 0.925 | 0.496 | 0.438 | 0.848 | 0.443 | 0.415
29 | 0.927 | 0.976 | 0.661 | NREGVYTDFAP [TGFBI_Y537_V539D] | 0.843 | 1.13 | 0.578 | 0.608 | 0.624 | 0.823 | 1.71 | 0.868 | 2.51 | 2.95 | 0.645 | 9.31 | 7.49
30 | 0.561 | 0.757 | 0.331 | NSRFTYKLEVK [USH2A_Y3747_YF] | 1.22 | 1.39 | 0.649 | 0.761 | 0.545 | 1.25 | 0.467 | 0.853 | 0.599 | 0.475 | 0.432 | 0.38 | 0.382
31 | 0.848 | 0.931 | 2.42 | NTTIHYNYMCN [TP53_Y234_C229N] | 1.08 | 1.06 | 0.747 | 0.803 | 0.692 | 0.817 | 0.574 | 0.707 | 0.566 | 0.579 | 0.767 | 0.55 | 0.496
32 | 0.692 | 0.985 | 0.801 | NTVDYYDLYGG [PTPN11_Y63_G60V] | 2.56 | 1.21 | 4.4 | 13.1 | 3.7 | 1.47 | 1.35 | 0.788 | 1.19 | 5.68 | 15.3 | 6.7 | 4.25
33 | 0.994 | 0.779 | 0.538 | NVTGHYIPPFH [PPA2_Y59_S61P] | 0.518 | 0.679 | 0.455 | 0.463 | 0.393 | 0.498 | 0.659 | 0.735 | 0.395 | 0.418 | 0.396 | 0.445 | 0.443
